Tests used:
[1] = target: CspA-His6 (Clostridioides difficile); test: SEC; individually Ni-affinity-purified Csp-His6 proteins on Superdex 200 Increase 10/300 GL; 200 mM NaCl, 10 mM Tris-HCl pH 7.5, 5% glycerol, 1 mM dithiothreitol; apparent MW from gel filtration standard
[2] = target: CspB-His6 (Clostridioides difficile); test: as above
[3] = target: CspC-CPD-His6 (Clostridioides difficile); test: SEC; elution fraction of a CspC-CPD-His6:CspA co-affinity purification (proteins co-expressed in E. coli) on Superdex 200 Increase 10/300 GL; 200 mM NaCl, 10 mM Tris-HCl pH 7.5, 5% glycerol, 1 mM dithiothreitol; fractions on SDS-PAGE; complex peak re-run on SEC; also run with TA and CaCl2 without difference

## CspA-His6 (domain or fragment)
[1]
  stoichiometry N: 2

## CspB-His6 (domain or fragment)
[2]
  stoichiometry N: 2

## untagged CspA (CspA_(583-1132)) (domain or fragment)
[3]
  stoichiometry N (ratio CspA:CspC-CPD-His6): 1

Source: publication PMC12880746
